Target: V5-HSP70 (UniProt P0DMV8)
Assay: co-IP

Chain of UniProt P0DMV8 (P0DMV8 whole entry): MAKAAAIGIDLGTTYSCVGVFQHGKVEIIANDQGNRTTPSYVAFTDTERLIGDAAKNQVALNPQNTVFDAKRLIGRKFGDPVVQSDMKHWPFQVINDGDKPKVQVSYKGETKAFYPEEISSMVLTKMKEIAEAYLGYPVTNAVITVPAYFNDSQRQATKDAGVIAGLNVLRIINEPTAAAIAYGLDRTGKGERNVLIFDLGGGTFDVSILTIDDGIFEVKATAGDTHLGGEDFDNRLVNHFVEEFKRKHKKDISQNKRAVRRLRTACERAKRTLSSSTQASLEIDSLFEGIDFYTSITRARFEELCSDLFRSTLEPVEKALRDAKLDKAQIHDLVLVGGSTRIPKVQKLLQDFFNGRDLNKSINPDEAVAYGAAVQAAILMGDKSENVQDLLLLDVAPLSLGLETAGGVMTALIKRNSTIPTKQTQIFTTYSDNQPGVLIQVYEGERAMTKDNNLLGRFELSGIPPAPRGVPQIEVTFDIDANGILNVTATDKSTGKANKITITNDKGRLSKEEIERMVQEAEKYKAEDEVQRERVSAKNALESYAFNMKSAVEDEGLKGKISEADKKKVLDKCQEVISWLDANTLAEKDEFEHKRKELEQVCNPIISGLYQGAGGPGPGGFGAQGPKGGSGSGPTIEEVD

BAG3 with L462P mutation (pCDH-L462P BAG3) (from UniProt O95817 1-575) (natural protein)
decrease of the association relative to WT BAG3: > 50%

Reference: paper PMC9085972
